Data as given in publication PMC5573810.

How the values were obtained:
[1] = molecular target: clade-C (ZM109) V1V2-ferritin nanoparticle (V1V2-FR) (HIV-1 ZM109 (clade C) | not stated) (UniProt Q9ZLI1); assay: ELISA
[2] = molecular target: gp120-ferritin (gp120-FR) nanoparticle; assay: ELISA

PGT121
EC50 [1]: 0.87 µg/mL | EC50 [2]: 0.077 µg/mL
